Among the data in article PMC5651264 are formazan staining of a native PAGE gel (fructokinase enzyme activity staining), 1 μg FRK6-His with 1 μg His-TSF (the His-tagged TSF, not the GST fusion), against FRK6-His alone values, retold here.

The target in this experiment is His-tagged FRUCTOKINASE6 (FRK6-His) (Arabidopsis thaliana).

In turn, “GST-tagged TWIN SISTER OF FT (GST-TSF) (from UniProt Q9S7R5 1-175) (natural protein)” returned a formazan staining of a native PAGE gel (fructokinase enzyme activity staining), 1 μg FRK6-His with 1 μg His-TSF (the His-tagged TSF, not the GST fusion), against FRK6-His alone of 2 fold.
